Patent publication US20130195901A1

Legend:
[1] = target: HLA-A*0201 class I monomer of the iTopia Epitope Discovery System; test: iTopia off-rate assay
[2] = target: HLA-A*0201 class I monomer of the iTopia Epitope Discovery System; test: iTopia affinity assay (ED50)

Row | Substance | fold increase of halftime of dissociation vs native peptide [1] | fold reduction of ED50 vs native peptide [2] | fold reduction of affinity vs native peptide [2]
1 | PRAME425-433 S425F L433Nle analog (peptide) | 2 fold | > 4 fold | –
2 | PRAME425-433 analog, Nva at P2 (peptide) | – | – | 3 fold
